From patent US20260193375A1 (NORMUNITY, published 2026)

B1: anti-LY6K antibody 2660 (antibody, V domains shown)
VH: EVQLVESGGGLVKPGGSLRLSCAASGFTFSDVWMSWVRQAPGKGLEWVGRIKSKTDGGRIDYAAPVKGRFTISRDDSKNTLYLQMNSLKTEDTAVYYCTTVPYSDYWGQGTLVTVSS
VL: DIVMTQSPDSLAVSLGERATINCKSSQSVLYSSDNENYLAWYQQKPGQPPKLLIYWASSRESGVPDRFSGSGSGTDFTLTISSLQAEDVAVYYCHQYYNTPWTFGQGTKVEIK
B2: anti-LY6K antibody 3741 (antibody, V domains shown)
VH: EVQLVESGGGLVKPGGSLRLSCAASGFTFSSYSMNWVRQAPGKGLEWVSSISSSSNYIYYVDSVKGRFTTSRDNAKNSLYLQMNSLRAEDTAVYYCARQEATGNNYYYYYMDVWGKGTTVTVSS
VL: DIQMTQSPSSLSASVGDRVTITCRASQSISNYLNWYQQNLGKAPKVLIYAASSLQSGVPSRFSGSGSGTDFTLTISSLQPEDFATYYCQQTYSTPITFGQGTRLEIK
B3: anti-LY6K antibody 3035 (antibody, V domains shown)
VH: EVQLVESGGGLVQPGGSLKLSCAASGFTFSDSTLHWVRQASGKGLEWVGRIRSKANSYATAYAASVKGRFTISRDDSKNTAYLQMNSLKTEDTAVYYCHNWSYGYWGQGTLVTVSS
VL: QTVVTQEPSLTVSPGGTVTLTCASSTGAVTSYYYPNWFQQKPGQAPRTVIYSTTNKHSWTPARFSGSLLGGKAALTLSGVLPEDEADYYCLLFYGGAYVFGTGTKVTVL
B4: anti-LY6K antibody 3705 (antibody, V domains shown)
VH: EVQLVESGGGLVHPGRSLRLSCAASGFTFDDYAMHWVRQAPGKGLEWVSGISWKNGKIDYADSVKGRFITSRDNAKNSLYLQMNSLRTEDTALYYCAKDRIEMTFDIWGQGTMVTVSS
VL: DIVMTQSPLSSPVTLGQPASISCRSSQSLEHSNGNTYLSWLQQRPGQPPRLLIYKISNRFSGVPDRFSGSGAGTDFTLKISRVEAEDVGVYYCMQTTQFPLTFGGGTKVEIK
B5: anti-LY6K antibody 3074 (antibody, V domains shown)
VH: EVQLVESGGGLVHPGRSLRLSCAASGFTFDDYAMHWVRQAPGKGLEWVSGISWKTNKIDYADSVKGRFTTSRDNAKNSLYLQMNSLRTEDTAFYYCAKDRREMTFDIWGQGTMVTVSS
VL: DIVMTQTPLSSPVTLGQPASISCRSSQSLEHSNGNTYLSWLQQRPGQPPRLLIYKISNRFSGVPDRFSGSGAGTDFTLKISRVEAEDVGIYYCMQATQFPLTFGGGTKVEIK
B6: anti-LY6K antibody 3101 (antibody, V domains shown)
VH: EVQLVESGGGLVQPGRSLRLSCAASGFTFDDYAMHWVRQTPGKGLEWVSGITWKSGNIGYADSVKGRFTISRDNAKNSLYLQMNSLRAEDTALYYCAKDTEAGLDYWGQGTLVTVSS
VL: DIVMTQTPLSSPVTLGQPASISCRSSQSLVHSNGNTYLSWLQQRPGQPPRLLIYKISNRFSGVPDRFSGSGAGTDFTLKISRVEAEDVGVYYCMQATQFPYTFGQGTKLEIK
B7: anti-LY6K antibody 3048 (antibody, V domains shown)
VH: EVQLVESGGGLVQPGRSLRLSCAASGFTFDDYAMHWVRQAPGKGLEWVSGITWKSGTIGYADSVKGRFTISRDNAKNSLYLQMNSLRAEDTALYYCAKDSRTGLDYWGQGALVTVSS
VL: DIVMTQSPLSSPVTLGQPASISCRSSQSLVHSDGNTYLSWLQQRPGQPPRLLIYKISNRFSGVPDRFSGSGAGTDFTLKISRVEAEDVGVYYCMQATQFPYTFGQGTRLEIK
B8: anti-LY6K antibody 3481 (antibody, V domains shown)
VH: EVQLVESGGGLVQSGRSLRLSCAASGFTFDDYAMHWVRQAPGKGLEWVSGITWKDVTIGYADSVKGRFTISRDNAKNSLYLQMNSLGAEDTALYYCAKDTSDGLDYWGQGTLVTVSS
VL: DIVMTQTPLSSPVTLGQPASISCRSSQSLVHSNGNTYLSWLQQRPGQPPRLLIYKISNRFSGVPDRFSGSGAGTDFTLKISRVETEDVGIYYCMQAIQFPYTFGQGTKLEIK
B9: anti-LY6K antibody 3746 (antibody, V domains shown)
VH: EVQLVESGGGLVKPGGSLRLSCAASGFIFSSYSMNWVRQAPGKGLEWVSSISSSSSYIYYADSEKGRFTISRDNAKNSLYLQMNSLRAEDTAVYYCARQSTVVTSDYYYYYMDVWGKGTTVTVSS
VL: DIQMTQSPSSLSASVGDRVTITCRASQSISNYLNWYQQKPGKAPNLLIYAASSLQSGVPSRFSGSGSGTDFTLTISSLQPEDFATYYCQQSYSPPITFGQGTRLEIK
B10: anti-LY6K antibody 3075 (antibody, V domains shown)
VH: QVQLVQSGSELKRPGASVKVSCKASGYTFIRYAMNWVRQAPGQGLEWMGWINTNTGNPTYAQGFTGRFVLSVDTSVSTAYLQISSLKVEDTAVYYCGRPGISSFEYWGQGTLVTVSS
VL: DIQMTQSPSSLSASVGDRVAITCRATQDISNYLDWYQQKPGKAPKLLIYDASNLETGVPSRFSGSGSGTDFTFTINSLQPEDIATYYCQQYDNLPLTFGGGTKVEIK

Assays:
[1] = molecular target: T1, cell-surface anchored LY6K (human, UniProt Q17RY6 18-138); assay: flow cytometry on target cells, MFI fitted in Prism
T1 construct: the cell is named under assay; also called LY6K on target cells
T1 sequence: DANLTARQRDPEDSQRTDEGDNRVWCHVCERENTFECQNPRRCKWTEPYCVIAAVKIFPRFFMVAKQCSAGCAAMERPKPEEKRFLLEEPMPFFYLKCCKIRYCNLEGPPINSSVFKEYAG

[2] = molecular target: T2, recombinant human LY6K (Wuxi) (human, UniProt Q17RY6 18-138); assay: ELISA, LY6K coated at 2 ug/mL, HRP-labelled mAb titrated
T2 construct: Limits of the construct not clearly stated; also called Human LY6K (Wuxi LY^KGLY138(1-38TR)_8His)
T2 sequence: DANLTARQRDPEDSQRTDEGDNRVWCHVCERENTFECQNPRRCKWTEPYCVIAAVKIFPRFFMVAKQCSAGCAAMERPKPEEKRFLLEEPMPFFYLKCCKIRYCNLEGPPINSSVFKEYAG

hLY6K-mFc = molecular target: T3, hLY6K-mFc (human, UniProt Q17RY6 18-138); assay: SPR (Carterra LSA), mAb captured on anti-human IgG-Fc, antigen as analyte
T3 construct: not shown: mFc
T3 sequence: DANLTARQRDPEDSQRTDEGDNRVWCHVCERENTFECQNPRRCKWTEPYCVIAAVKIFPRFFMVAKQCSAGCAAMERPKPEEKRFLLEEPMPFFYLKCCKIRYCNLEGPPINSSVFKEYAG

hLY6K-his = molecular target: T4, hLY6K-his (human, UniProt Q17RY6 18-138, limits assumed); assay: as above
T4 construct: not shown: his tag
T4 sequence: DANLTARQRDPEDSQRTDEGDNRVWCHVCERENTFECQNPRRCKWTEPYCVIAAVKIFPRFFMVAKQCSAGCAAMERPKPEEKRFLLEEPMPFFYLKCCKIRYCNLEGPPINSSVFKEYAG

cyLY6K-mFc = cyLY6K-mFc (cynomolgus monkey); assay: as above
human LY6E (R&D Systems) [3] = molecular target: T5, human LY6E (R&D Systems) (human, UniProt Q16553 21-101, limits assumed); assay: ELISA, antigen coated on the plate, antibody as human IgG1, anti-human F(ab)2 HRPO
T5 construct: also called hLY6E
T5 sequence (looked up): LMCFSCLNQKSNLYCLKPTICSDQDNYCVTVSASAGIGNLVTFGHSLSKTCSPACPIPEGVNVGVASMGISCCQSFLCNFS

Ly6D = molecular target: T6, Ly6D; assay: as above
T6 chain: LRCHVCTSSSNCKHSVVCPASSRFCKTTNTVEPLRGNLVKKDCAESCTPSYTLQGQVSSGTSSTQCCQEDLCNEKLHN

Ly6H = molecular target: T7, Ly6H; assay: as above
T7 chain: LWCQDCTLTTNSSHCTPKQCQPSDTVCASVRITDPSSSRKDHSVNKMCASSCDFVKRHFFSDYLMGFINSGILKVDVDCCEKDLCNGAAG

[4] = molecular target: T2, recombinant human LY6K (Wuxi); assay: capture ELISA (MSD): antibody coated as capture at 2 µg/mL, recombinant human LY6K titrated, sulfo-tagged polyclonal anti-hLY6K (AF6648) for detection; EC50 is the LY6K concentration
human LY6E (R&D Systems) [5] = molecular target: T5, human LY6E (R&D Systems); assay: ELISA, coated antigen, IgG1 at 10 ug/ml
Human LY6K (R&D Systems) = molecular target: T8, Human LY6K (R&D Systems) (human, UniProt Q17RY6 18-138, limits assumed); assay: ELISA, coated antigen, IgG1 at 10 ug/ml
T8 construct: Bought from R&D Systems, coated on ELISA plates; also called hLY6K
T8 sequence: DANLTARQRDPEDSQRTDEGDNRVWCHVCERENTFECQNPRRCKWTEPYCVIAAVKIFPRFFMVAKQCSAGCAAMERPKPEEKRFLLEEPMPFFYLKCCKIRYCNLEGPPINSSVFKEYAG

rat LY6K (R&D Systems) = molecular target: T9, rat LY6K (R&D Systems) (rat); assay: ELISA, coated antigen, IgG1 at 10 ug/ml
T9 construct: also called rLY6K

[6] = molecular target: T10, cynomolgus monkey LY6K (R&D Systems) (cynomolgus monkey); assay: ELISA, coated antigen, IgG1 at 10 ug/ml
T10 construct: also called cyLY6K

[7] = molecular target: T1, cell-surface anchored LY6K; assay: flow cytometry on target cells, MFI fitted in Prism; flow cytometry, live target cells, 4 degrees C

Binder	EC50 [1]	EC50 [2]	Kd (hLY6K-mFc)	Kd (hLY6K-his)	Kd (cyLY6K-mFc)	binding result (human LY6E (R&D Systems) [3])	binding result (Ly6D)	binding result (Ly6H)	EC50 [4]	% of maximum of commercial anti-LY6K mAb on human LY6K (human LY6E (R&D Systems) [5])	% of maximum of commercial anti-LY6K mAb on human LY6K (Human LY6K (R&D Systems))	% of maximum of commercial anti-LY6K mAb on human LY6K (rat LY6K (R&D Systems))	% of maximum of commercial anti-LY6K mAb on human LY6K [6]	EC50 [7]
B1	0.364 nM	1.57 nM	0.00702 nM	3.59 nM	0.0518 nM	no binding (tested: 10 µg/ml)	no binding (tested: 10 µg/ml)	no binding (tested: 10 µg/ml)	0.0756 mg/L	3.1%	95.1%	-0.1%	106%	
B2		3.08 nM	0.0505 nM	5.66 nM	0.379 nM	no binding (tested: 10 µg/ml)	no binding (tested: 10 µg/ml)	no binding (tested: 10 µg/ml)	0.0568 mg/L	3.1%	67.6%	-1.6%	66.4%	
B3		2.86 nM				no binding (tested: 10 µg/ml)	no binding (tested: 10 µg/ml)	no binding (tested: 10 µg/ml)	0.168 mg/L	5.6%	65.2%	1%	71.4%	
B4	58.1 nM	16.2 nM	0.185 nM	6.31 nM						7.8%	102%	0%	1.1%	
B5	164 nM	5.2 nM	0.164 nM	3.23 nM		no binding (tested: 10 µg/ml)	no binding (tested: 10 µg/ml)	no binding (tested: 10 µg/ml)	0.315 mg/L	3.4%	89.2%	-1.2%	-0.2%	
B6			0.0264 nM	1.83 nM					0.163 mg/L	2.4%	94.9%	0.6%	3%	
B7	3.33 nM	2.65 nM	0.0428 nM	4.7 nM						2.5%	81.2%	1.5%	0.1%	
B8	2.84 nM	2.08 nM	0.0157 nM	1.19 nM						2.7%	99.4%	0.9%	0.2%	
B9		3.04 nM	0.0362 nM	2.5 nM	0.216 nM					1.2%	76.9%	3.1%	78.7%	3.21 nM
B10		1.56 nM								1.6%	58.3%	0.7%	16.7%	0.805 nM
